Assay results reported in the supplement of paper PMC9170038.

Test system: MS2 coat protein
Test: apparent KD of MS2 coat protein; higher = weaker reporter binding
Conditions: Eterna round: R107
Procedure: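 RNA-MaP round R107: designed RNA switches with theophylline, tryptophan, arginine or FMN aptamers are transcribed on-chip within common flanks. They are titrated with SNAP-549-labelled MS2 coat protein in RNA-MaP buffer (100 mM Tris pH 7.5, 80 mM KCl, 4 mM MgCl2), without ligand or with the indicated ligand. Median apparent KD per design.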

[1] = input ligand: theophylline 20 uM
[2] = input ligand: theophylline 2 mM
[3] = input ligand: tryptophan 2.4 mM

Sequence | apparent KD of MS2 coat protein (input ligand: arginine 13.2 mM) | apparent KD of MS2 coat protein [1] | apparent KD of MS2 coat protein [2] | apparent KD of MS2 coat protein [3] | apparent KD of MS2 coat protein (input ligand: none)
UGUAUGGACUGAAGGAGCGGGUUGAUAACCUGAGGAUCAUCCAGGUAAAAGGCGAAAGCCACCCAGGUAGGUCGCAGUCCAUACU | 199 nM | 344 nM | 433 nM | 322 nM | –
CGUCGAGACUGAAGGAGCGAGAUAACAACAUUGGGUCUCAACACAUGAGGAUCACCCAUGUCUCAGGUAGGUCGCGGUGUCACCG [Exclusion Arginine B GF21] | 142 nM | 211 nM | 150 nM | 132 nM | 195 nM
AAACAUUGCUGCGAUACCAGACAUGAGGAUCACCCAUGUACCAAGAAAACGUACAUAAAUGUCCCUUGGCAGCGCAGCAAUGAAA [MAT - Exclusion Theophlline B - Mod of Eli - D27] | 216 nM | 514 nM | – | 651 nM | –
AUCCUCUAGAAUGAUACCAGACCAAACAUGAGGAUCACCCAUGUAUCAGGCAAUUGUUACGUCCCUUGGCAGCAUGUAUGCCGAC [Theo B SS t3] | 17.7 nM | 31.5 nM | – | 20.2 nM | –
GUUAUAUUAAUUGAUACCAGCGAGAAAACAUGAGGAUCACCCAUGUUCGCCCAUGUUAAGCGCCCUUGGCAGCAAUUUUAUUAGC [AstrosExyTheB#2] | 32.1 nM | 44.3 nM | – | 37.5 nM | –
AAUAAACAUGAGGAUCACCCAUGUAUGGAAGGAGCGGUGAAUAAACCAGGUAGGUCGCCAGUGUGAGGGUCAUCUAUGUAAUCAA [Exclusion - Arginine A (Freestyle 3)] | 29.1 nM | 58.3 nM | 49.3 nM | 49.5 nM | 42.1 nM
CCGUAGCUAGGAAGGAGCGCAUACUUCACAUGAGGAUCACCCAUGUCGAGACGUGAGUCAGUGCAGGUAGGUCGCCUAGCUAUGG [Same State - Arginine B (Freestyle 28)] | 23.5 nM | 26.4 nM | 30.5 nM | 15.7 nM | 15.5 nM
UCCUGCAGAGCGGCCGCCACUGUAUUGCGUGAGGAUGACCCAACAUGAGGAUCACCCAUGUUGUUUAGGACCGGGCUUGCCACGA [opmullin%] | 13.7 nM | 21.2 nM | 15 nM | – | –
ACAUGAGGAUCACCCAUGUAUUACCGGGAAGGAGCGGCCGGAAGGCCAGGUAGGUCGCUCGGCGUCGUGCUGUAAAGCACGACGA [#1 Same State - Arginine A Attempt #27 (HarryS)] | 8.95 nM | 18.4 nM | 12.2 nM | 11.6 nM | 14 nM
AACAUGAGGAUCACCCAUGUCCCUCCCUCCCGAGGACCGGUACGGCCGCCACUCGCCCUCCCUCCCUAAGAAAGAAAGAAGAAGA [Same State - Trypopjan A] | 54 nM | 38 nM | 38.5 nM | 32.1 nM | 37.9 nM
AGAGCAUUGACGGCCGCCACUUAUGUCACAUGAGGAUCACCCAUGUGAUGGGUGAUAGCCCGGUUGAGGACCGGGUCAAUGCUCA [Omei Tryp SS B v6] | 14.8 nM | 18.5 nM | 15.2 nM | – | –
UUAGAUAUGACGGAUACCAGCGUGUUGUAGAACAUGAGGAUCACCCAUGUAGUGAUCGUGCGCCCUUGGCAGCUGGUAUGUUUGG [7.V] | 133 nM | 491 nM | – | 501 nM | –
AAAAUCCUACCUGAGGAUCACCCGGGUGAAGGAGCGCCCGAAAGGGCAGGUAGGUCGCACCUGAGGAUCACCCUGGUAAACCUAA [ArgEX 23 #DoubleMS2 #OpenEnded] | 103 nM | 183 nM | 234 nM | 154 nM | 172 nM
GUAUAGUCUCGAAGGAGCGUCACAUGAGGAUCACCCAUGUACAUGAGGAUCACCCAUGUGUGGCAGGUAGGUCGCGAGCUAUACC [Exclusion Arginine B GF8] | 136 nM | 228 nM | 281 nM | 312 nM | 265 nM
CUCUGAGUCCGCAAGGACUCAGAGGCGGAUACCAGCGAGGUCCAUCGCCCUUGGCAGCCGAACAUGAGGAUCACCCAUGUCGGUA [#1 Same State - Theophylline A Attempt #27 (HarryS)] | 8.89 nM | 14.5 nM | – | 10.9 nM | –
AGUACUCGAACGGAUACCAGCCGGACAUGAGGAUCACCCAUGUCCUACCAUGUCUCGGUUGGCCCUUGGCAGCCGUUCGUGUACA [Omei Theo B SS A v2] | 17 nM | 469 nM | – | 95.8 nM | –
